T1: Myo5 SH3 (MYO5_YEAST), Q04439
T1 chain: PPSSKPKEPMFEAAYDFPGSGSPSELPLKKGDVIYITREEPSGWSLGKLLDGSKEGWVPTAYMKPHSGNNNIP

T2: Boi1 SH3 (BOI1_YEAST), P38041
T2 chain: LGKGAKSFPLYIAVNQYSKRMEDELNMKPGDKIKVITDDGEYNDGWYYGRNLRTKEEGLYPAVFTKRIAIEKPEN

T3: Yhr016c SH3 (YSC84_YEAST), P32793
T3 chain: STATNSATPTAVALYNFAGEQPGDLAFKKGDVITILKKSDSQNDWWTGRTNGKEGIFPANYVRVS

T4: Rvs167 SH3 (RV167_YEAST), P39743
T4 chain: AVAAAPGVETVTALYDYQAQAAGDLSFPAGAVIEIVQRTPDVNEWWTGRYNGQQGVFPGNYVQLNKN

T5: Boi2 SH3 (BOI2_YEAST), P39969
T5 chain: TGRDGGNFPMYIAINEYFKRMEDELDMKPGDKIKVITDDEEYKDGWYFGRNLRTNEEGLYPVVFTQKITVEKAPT

T6: Yfr024 SH3 (LSB3_YEAST), P43603
T6 chain: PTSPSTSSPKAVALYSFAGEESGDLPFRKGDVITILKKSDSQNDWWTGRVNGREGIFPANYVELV


What was measured:
Assay in all cases: SPOT array
[1] = target: T1, Myo5 SH3 (MYO5_YEAST), Q04439
[2] = target: T2, Boi1 SH3 (BOI1_YEAST), P38041
[3] = target: T3, Yhr016c SH3 (YSC84_YEAST), P32793
[4] = target: T4, Rvs167 SH3 (RV167_YEAST), P39743
[5] = target: T5, Boi2 SH3 (BOI2_YEAST), P39969
[6] = target: T6, Yfr024 SH3 (LSB3_YEAST), P43603
[7] = target: Sho1 SH3 (SHO1_YEAST), P40073
Sequence of Sho1 SH3 (SHO1_YEAST), P40073 (P40073 295-366): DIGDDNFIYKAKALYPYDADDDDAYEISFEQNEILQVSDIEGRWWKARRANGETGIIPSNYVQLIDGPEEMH

normalised SPOT signal, Boehringer light units (BLU); mean over the file's lines of this peptide [1]	normalised SPOT signal, Boehringer light units (BLU); mean over the file's lines of this peptide [2]	normalised SPOT signal, Boehringer light units (BLU); mean over the file's lines of this peptide [3]	normalised SPOT signal, Boehringer light units (BLU); mean over the file's lines of this peptide [4]	normalised SPOT signal, Boehringer light units (BLU); mean over the file's lines of this peptide [5]	normalised SPOT signal, Boehringer light units (BLU); mean over the file's lines of this peptide [6]	normalised SPOT signal, Boehringer light units (BLU); mean over the file's lines of this peptide [7]	Binder
143	73.8	288	436	111	485	114	FEYSKYRPLTPSSE [YOR001W 401-414]
188	96	116	40	21.7	74.4	76	FANIKREPVHPEIR [YPR101W 28-41]
172	58.8	37.5	27.1	13.4	70	30.7	FGSNKNNPVPPELT [YIL125W 149-162]
211	616	33.1	148	0.7	574	126	FENRKHQPFTPKGM [YKL171W 669-682]
248	12	3920	59.7	7.9	11100	65	FEEDKMTPSTPVRS [YJR092W 847-860]
153	35.5	30.3	23.2	7.7	0.1	183	FGTAKILPEEPSNT [YDR490C 268-281]
300	518	113	28.7	16.3	498	122	FHDPKFIPNKPYRQ [YGR019W 335-348]
359	60.7	40.9	585	269	264	12.3	FASEKGAPFFPNKT [YPR144C 134-147]
96.5	95.4	42	12.7	19.5	45.9	25.1	FHPEKLTPYTPMTG [YHR204W 260-273]
297	65.4	32.1	46.8	13.1	80.9	38.2	EWEEKLTPAGPLSP [YDR402C 463-476]
40.7	31.6	14.9	44.1	24.9	1360	39.1	EVENKLRPDLPVKN [YFR030W 637-650]
99	892	29.3	99.4	28.9	154	75.1	FKVYRWNPDEPSAK [YLL041C 36-49]
656	700	72	952	10.9	146	410	FIKNKAKPLIPIEL [YJL201W 254-267]
138	15400	362	253	33.9	838	839	FFYRRDIPDVPITT [YDR310C 827-840]
272	456	22.8	104	5.6	93.1	31.2	EYFPREYPKDPVSE [YDR124W 275-288]
169	46.4	10.4	6.9	0	0	47.5	EVLRKYIPGEPEFL [YDR023W 429-442]

Source: PMC314469, “Protein Interaction Networks by Proteome Peptide Scanning” (PLoS Biology, 2004)
